{"source": "paper PMC5855711", "settings_in_all_cases": "remark: other sources report otherwise", "key": {"[1]": {"target": "T1, human recombinant HSP60 (without mitochondrial signal sequence) (human), P10809", "assay": "SEC; Superdex 200 10/300 GL, 0.41 μM HSP60 or GroEL, 0.1 M NaCl, 5% glycerol, 50 mM HEPES-KOH pH 7.4, no nucleotide; size from a calibration curve"}, "[2]": {"target": "T1, human recombinant HSP60 (without …)", "assay": "transmission electron microscopy (uranyl acetate stain); 1 mM ATP; HSP60 (wild type or D398A) 0.1 μM alone or with HSP10 0.2 μM, or GroEL 0.1 μM with GroES 0.2 μM, buffer D, 25 °C, 10 min; more than 500 side views counted, three experiments; self-association: single ring (7) to double ring (14)"}, "[3]": {"target": "T1, human recombinant HSP60 (without …)", "assay": "small angle X-ray scattering (SAXS); 1 mM ATP; 3.0 mg/mL HSP60 or GroEL with various concentrations of co-chaperone, buffer D, 25 °C; self-association: single ring (7) to double ring (14)"}, "[4]": {"target": "T1, human recombinant HSP60 (without …)", "assay": "transmission electron microscopy (uranyl acetate stain); 1 mM ADP; HSP60 0.1 μM alone or with HSP10 0.2 μM, buffer D, 25 °C, 10 min"}, "[5]": {"target": "T1, human recombinant HSP60 (without …)", "assay": "transmission electron microscopy (uranyl acetate stain); no nucleotide; HSP60 0.1 μM alone or with HSP10 0.2 μM, or GroEL 0.1 μM with GroES 0.2 μM, buffer D (10 mM MgCl2, 20 mM KCl, 1 mM DTT, 50 mM HEPES-KOH pH 7.4), 25 °C, 10 min"}}, "data": [{"binder": "human recombinant HSP60 (without mitochondrial signal sequence), P10809 27-573 (natural protein) AKDVKFGADARALMLQGVDLLADAVAVTMGPKGRTVIIEQSWGSPKVTKDGVTVAKSIDLKDKYKNIGAKLVQDVANNTNEEAGDGTTTATVLARSIAKEGFEKISKGANPVEIRRGVMLAVDAVIAELKKQSKPVTTPEEIAQVATISANGDKEIGNIISDAMKKVGRKGVITVKDGKTLNDELEIIEGMKFDRGYISPYFINTSKGQKCEFQDAYVLLSEKKISSIQSIVPALEIANAHRKPLVIIAEDVDGEALSTLVLNRLKVGLQVVAVKAPGFGDNRKNQLKDMAIATGGAVFGEEGLTLNLEDVQPHDLGKVGEVIVTKDDAMLLKGKGDKAQIEKRIQEIIEQLDVTTSEYEKEKLNERLAKLSDGVAVLKVGGTSDVEVNEKKDRVTDALNATRAAVEEGIVLGGGCALLRCIPALDSLTPANEDQKIGIEIIKRTLKIPAMTIAKNAGVEGSLIVEKIMQSSSEVGYDAMAGDFVNMVEKGIIDPTKVVRTALLDAAGVASLLTTAEVVVTEIPKEEKDPGMGAMGGMGGGMGGGMF", "values": [{"measurement": "stoichiometry N", "setting": "[1]", "value": 7.3, "unit": "subunits"}, {"measurement": "percent of HSP60-containing complexes with the double-ring structure (with HSP10 and ATP)", "setting": "[2]", "value": 80, "unit": "%"}, {"measurement": "percent of HSP60 in double rings, football-type and bullet-type (with HSP10 and ATP)", "setting": "[2]", "value": 70, "unit": "%"}, {"measurement": "percent of side views that are HSP60 (7), single ring alone (with HSP10 and ATP)", "setting": "[2]", "value": 10, "unit": "%"}, {"measurement": "percent of side views that are HSP60 (14), double ring alone (with HSP10 and ATP)", "setting": "[2]", "value": 2, "unit": "%"}, {"measurement": "fraction of double-ring HSP60 (curve fitting, HSP60+ATP)", "setting": "[3]", "value": 0.14}, {"measurement": "fraction of single-ring HSP60 (curve fitting, HSP60+ATP)", "setting": "[3]", "value": 0.86}, {"measurement": "fraction of single-ring HSP60 without HSP10 (curve fitting, HSP10 and ATP present)", "setting": "[3]", "value": 0.09}, {"measurement": "percent of HSP60 in double rings (from I(0)/C, ATP, no HSP10)", "setting": "[3]", "value": 50, "unit": "%"}, {"measurement": "stoichiometry N", "setting": "[4]", "value": 7}, {"measurement": "stoichiometry N", "setting": "[5]", "value": 7}]}]}
